PMC3206353

How the values were obtained:
Conditions in all cases: remark: other sources report otherwise
[1] = molecular target: Mg-ATP-actin monomer (chicken breast muscle actin) (chicken), P68139; test: inhibition of nucleotide exchange
[2] = molecular target: T1, pyrene-labeled ADP-actin filaments (chicken breast muscle actin) (chicken), P68139; test: other fluorescence titration
[3] = molecular target: T1, pyrene-labeled ADP-actin filaments …; test: stopped-flow fluorescence kinetics
[4] = molecular target: T1, pyrene-labeled ADP-actin filaments …; test: other fluorescence titration; remark: listed apart in the source

B1: wild-type fission yeast cofilin, P78929 1-137 (natural protein)
chain: MSFSGVKVSPECLEAFQELKLGKSLRYVVFKMNDTKTEIVVEKKSTDKDFDTFLGDLPEKDCRYAIYDFEFNLGEGVRNKIIFISWSPDVAPIKSKMVYSSSKDTLRRAFTGIGTDIQATDFSEVAYETVLEKVTRK
- Kd [1]: 0.08 µM
- Kd [2]: 0.34 µM
- kobs (3 µM cofilin, 1 µM filaments) [3]: 73.6 s⁻¹
- kon [3]: 1.25e+07 M⁻¹ s⁻¹
- Ka of the cooperative model (Kd = 1/(ω*Ka)) [4]: 0.15 µM⁻¹
- Kd [4]: 0.33 µM
- binding cooperativity ω [4]: 19.9
